Assay results published in PMC10891134, “Bacteria employ lysine acetylation of transcriptional regulators to adapt gene expression to cellular metabolism” (Nature Communications, 2024).

Biological target: T1, RutR WT (UniProt P0ACU2 1-212)
T1 sequence: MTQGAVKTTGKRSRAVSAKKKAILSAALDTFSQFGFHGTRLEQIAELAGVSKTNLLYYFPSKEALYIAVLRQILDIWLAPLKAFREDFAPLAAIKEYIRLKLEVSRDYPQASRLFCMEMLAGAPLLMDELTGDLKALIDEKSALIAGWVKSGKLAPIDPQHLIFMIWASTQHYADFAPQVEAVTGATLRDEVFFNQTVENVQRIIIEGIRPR
Assay: SPR; ITC: 100 mM potassium phosphate pH 6.4, 150 mM NaCl, 5 mM MgCl2, 2 mM b-ME, 20 or 25 C; SPR: 100 mM potassium phosphate pH 6.4, 300 mM NaCl, 0.05% Tween20, 25 C; EMSA: 20 mM Tris-HCl pH 7.5, 100 mM KCl, 2 mM DTT, 10% glycerol, 25 nM DNA, 30 C
Details: protein: recombinant; tags: His6; chain copies: 2; blunt

B1: biotin-boxrutA (dsDNA)
DNA 1: GTTTTATGTGCAACTGTTTTGACCGTTTAGTCCACTTTTTACCAGATATTTTAG
DNA 2: CTAAAATATCTGGTAAAAAGTGGACTAAACGGTCAAAACAGTTGCACATAAAAC
  Kd: 4.27 ± 1.19 nM
